Assay results reported in US20140010797, “Fusion Molecules of Rationally-Designed DNA-Binding Proteins and Effector Domains” (DUKE UNIVERSITY, published 2014).

Molecular target: T1, CCR2REP (Artificial Sequence, UniProt P05725 SEQ:11-173)
T1 chain: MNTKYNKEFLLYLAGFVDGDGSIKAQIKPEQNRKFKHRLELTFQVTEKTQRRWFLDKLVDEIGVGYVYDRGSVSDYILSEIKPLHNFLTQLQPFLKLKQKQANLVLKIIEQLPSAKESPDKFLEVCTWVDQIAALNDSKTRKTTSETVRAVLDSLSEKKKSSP
Assay: cell_activity; LacZ reporter with truncated CMV promoter, HEK 293
Settings: tags: N-terminal SV40 NLS, C-terminal Kid-1 KRAB; chain copies: 2
Description: An E. coli beta-galactosidase (LacZ) gene was inserted into the mammalian expression vector pCI (Promega) between PstI and NotI. In this plasmid, LacZ expression is driven by a truncated CMV promoter (corresponding to the 3′ 442 bp of the canonical CMV promoter, SEQ ID NO: 47). A CCR2 recognition sequence (SEQ ID NO: 45) was then inserted at the 5′ end of this promoter (see FIG. 6A).
HEK 293 cells (1×10⁵) were transfected first with either the pCI empty vector or pCI carrying the CCR2REP gene under the control of a constitutive CMV promoter using Lipofectamine 2000 according to the manufacturer's instructions (Invitrogen). 6 hours post-transfection, transfection complexes were removed and replaced with fresh media. 24 hours post-transfection, the cells were re-transfected with the LacZ reporter plasmid using Lipofectamine 2000. As a measure of transfection efficiency, additional cells were transfected at both time points with pCI eGFP. […]
Lysates from transfected cells were subjected to a standard o-nitrophenyl-β-D-galactoside (ONPG) assay (Current Protocols in Molecular Biology. ed. V. B. Chanda. Vol. 2. 2004, John Wiley & Sons, Inc). […] The reaction was stopped with 500 μL 1M Na₂CO₃ after one hour, and the absorbance at 420 nm was measured using a NanoDrop ND-1000 spectrophotometer. β-galactosidase activity was determined using standard equations.

B1: CCR2 palindrome (dsDNA)
DNA 1: AGGCATCTCGTACGAGATGCCT
DNA 2: AGGCATCTCGTACGAGATGCCT
activity: ~2.6 fold repression
